Article PMC4855144

Target: GFP-N-WASP WH1-GBD
Test: co-IP; GFP microbeads precipitate GFP-N-WASP and fragments ΔWA, WH1, WH1-GBD from HEK293T cell extracts; endogenous CRN7 detected with mAb K37-142-1; ratio of co-IP to IP

Chain of GFP-N-WASP WH1-GBD (O00401 whole entry, the tested form may be a part): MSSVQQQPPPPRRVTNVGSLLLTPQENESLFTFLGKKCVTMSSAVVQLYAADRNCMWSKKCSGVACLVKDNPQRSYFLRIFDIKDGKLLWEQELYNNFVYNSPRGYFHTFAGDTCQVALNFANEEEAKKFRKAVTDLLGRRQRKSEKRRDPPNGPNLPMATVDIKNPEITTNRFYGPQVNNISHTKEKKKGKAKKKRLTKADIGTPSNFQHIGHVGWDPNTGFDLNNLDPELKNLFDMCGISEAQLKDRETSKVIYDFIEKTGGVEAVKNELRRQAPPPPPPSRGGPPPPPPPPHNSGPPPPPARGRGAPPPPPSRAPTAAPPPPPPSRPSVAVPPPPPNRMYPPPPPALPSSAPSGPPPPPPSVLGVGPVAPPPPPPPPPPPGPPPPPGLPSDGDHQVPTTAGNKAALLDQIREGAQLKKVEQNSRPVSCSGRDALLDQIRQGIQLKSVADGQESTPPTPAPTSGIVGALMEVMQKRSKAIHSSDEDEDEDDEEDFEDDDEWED

B1: endogenous CRN7 (Coronin7) of HEK293T cells (natural protein)
chain: MNRFRVSKFRHTEARPPRRESWISDIRAGTAPSCRNHIKSSCSLIAFNSDRPGVLGIVPLQGQGEDKRRVAHLGCHSDLVTDLDFSPFDDFLLATGSADRTVKLWRLPGPGQALPSAPGVVLGPEDLPVEVLQFHPTSDGILVSAAGTTVKVWDAAKQQPLTELAAHGDLVQSAVWSRDGALVGTACKDKQLRIFDPRTKPRASQSTQAHENSRDSRLAWMGTWEHLVSTGFNQMREREVKLWDTRFFSSALASLTLDTSLGCLVPLLDPDSGLLVLAGKGERQLYCYEVVPQQPALSPVTQCVLESVLRGAALVPRQALAVMSCEVLRVLQLSDTAIVPIGYHVPRKAVEFHEDLFPDTAGCVPATDPHSWWAGDNQQVQKVSLNPACRPHPSFTSCLVPPAEPLPDTAQPAVMETPVGDADASEGFSSPPSSLTSPSTPSSLGPSLSSTSGIGTSPSLRSLQSLLGPSSKFRHAQGTVLHRDSHITNLKGLNLTTPGESDGFCANKLRVAVPLLSSGGQVAVLELRKPGRLPDTALPTLQNGAAVTDLAWDPFDPHRLAVAGEDARIRLWRVPAEGLEEVLTTPETVLTGHTEKICSLRFHPLAANVLASSSYDLTVRIWDLQAGADRLKLQGHQDQIFSLAWSPDGQQLATVCKDGRVRVYRPRSGPEPLQEGPGPKGGRGARIVWVCDGRCLLVSGFDSQSERQLLLYEAEALAGGPLAVLGLDVAPSTLLPSYDPDTGLVLLTGKGDTRVFLYELLPESPFFLECNSFTSPDPHKGLVLLPKTECDVREVELMRCLRLRQSSLEPVAFRLPRVRKEFFQDDVFPDTAVIWEPVLSAEAWLQGANGQPWLLSLQPPDMSPVSQAPREAPARRAPSSAQYLEEKSDQQKKEELLNAMVAKLGNREDPLPQDSFEGVDEDEWD
fold binding (co-IP to IP ratio) over WH1 alone: 4 fold
